The nanobody polyreactivity screen of Harvey et al. (2022)

experiment: yeast display, Sf9 membrane polyspecificity reagent, FACS + sequencing; frameworks hold sequencing errors
Summary of the method: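 Synthetic nanobody libraries on Saccharomyces cerevisiae BJ5465 were galactose-induced for 36–48 hours, stained 1 hour at 4 °C with 10% biotinylated, detergent-solubilized Sf9 membrane reagent and enriched on streptavidin microbeads. FACS then separated cells into low and high (top ~1%) gates by anti-HA (expression) and streptavidin (reagent binding) fluorescence. Genes were colony-PCR amplified, MiSeq 2 × 250 sequenced and CDR-length filtered. A clone's polyreactivity label is that of its gate of origin.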

| Sequence | polyreactivity (PSR sort gate) |
| --- | --- |
| QVQLVESGGGLVQAGGSLRFSCAASGRIFRRYAMGWYRQAPGKERELVAAITQSGDSTYYADSVKGRFTISRDNAKNTVYLQMNSLKPEDTAVYYCAAAGGPYRYNYWGQGTQVTVSS | high polyreactivity |
| QVQLVESGGGLVQAGGSLRFSCAASGRIFSGNGMGWYRQAPGKEREFVAAIRFSSGSTYYADSVKGRFTISRDNAKNTVYLQMNSLKPEDTAVYYCARPSIPRRYDYWGQGTQVTVSS | high polyreactivity |
| QVQLVESGGGLVQAGGSLRFSCAASGRIFTPYAMGWYRQAPGKERELVAVIRDGSTYYADSVKGRFTISRDNAKNTVYLQMNSLKPEDTAVYYCRYDIWVWWSGAYDYWGQGTQVTVSS | low polyreactivity |
| QVQLVESGGGLVQAGGSLRFSCAASGRIFYLNAMGWYRQAPGKERELVAAISRSGGRTYYADSEKGRFTISRDNAKHTVYLQMNSLKPEDTAVYYCAADTAGATPERNYWGQGPQVTVSS | high polyreactivity |
| QVQLVESGGGLVQAGGSLRFSCAASGRISPSYAMGWNRKAPGKERELVAAIYRGGSTSYADSVKGRFTISRDNAKNNVYLQMNSLKPEDTAVYYCATRGPRYRYYYWGQGTQVTVSS | high polyreactivity |
| QVQLVESGGGLVQAGGSLRFSCAASGRTFYRYAMGWYRQAPGKERVLVAAISGSGGSTYYADSVKGRFTISRDNAKNTVYLQMNSLKPEDTAVYYCAADGPSHHGDDDYWGQGTQVTVSS | low polyreactivity |
| QVQLVESGGGLVQAGGSLRFSCAASGSICGGYAMGWYRQAPGKERELVASITKSGDSTYADSVKGRFTISRDNAKNTVYLQMNSLKPEDTAVYYSAADSTFGNFDYWGQGTQVTVSS | low polyreactivity |
| QVQLVESGGGLVQAGGSLRFSCAASGSTFQYYAMGWYRQAPGKEREFVAAIRSSGGTTYYADSVKGRFTLSRDNAKNTVYLQMNSLKPEDTAVYYCAATTKYNGRRSYFKFDYWGQGTQVTVSS | high polyreactivity |
| QVQLVESGGGLVQAGGSLRFSCAASGSTFTAYVMGWYRQAPGKERELVAAISRSGGRTYYADSVKGRFTISRDNAKKTVYLQMNSLKPEDTAVYYCAARSGPLAYDYWGQGTQVTVSS | high polyreactivity |
| QVQLVESGGGLVQAGGSLRFSCAASGSTFTVYAMGWYRQAPGQERELVAAITNGGRTYYADSVKGRFTISRDNAKNTVYLQMNSLKPEDTAVYYCAADVYYDDYLYDYWGQGTQVTVSS | high polyreactivity |
| QVQLVESGGGLVQAGGSLRFSCAASGSTISSNVMGWYRQAPGKERELVAAITKTGGRTYYADSVKGRFTISRDNAKNTVYLQMNSLKPEDTAFYYCAAKSKPRGTSSDYYYWGQGTQVTVSS | high polyreactivity |
| QVQLVESGGGLVQAGGSLRFSCAASGTFDYYDMGWYRQAPGKEWELVAGITSGGSTDYADSEKGRFTISRDNAKNTVYLQMNSLKPEDTAVYYCAADPFRIHTYDYWGQGTQVTVSS | low polyreactivity |
| QVQLVESGGGLVQAGGSLRFSCAASGTFVPYAMGWYRQAPGKEMELVARITWRGGSTYYADSVKGRFTISRDNAKNTVYLQMNSLKPEDTAVYYCATVSDNRYYYWGQGTQVTVSS | low polyreactivity |
| QVQLVESGGGLVQAGGSLRFSCADSGSIFRYAMGWYRQAPGKERELVAGMSASGGRTYYADSVKGRFTISRDNAKNTVYLQMNSLKPEDTAVYYCNAVTREYQRPPVPRSYLYDYWGQGTQVTVSS | high polyreactivity |
| QVQLVESGGGLVQAGGSLRFSCAPSGITFRFYAMGCYRQAPGKESEFVAAISSRGGRTYYADSVKGRFTISRDYAKNTVYLQMNSLKPEDTAVYYCAAGKIGRYHYDYWGQGTQVTVSS | high polyreactivity |
| QVQLVESGGGLVQAGGSLRFSCPASGLIFYYYVMGWYRQAPGKEREFVAAIRYRSSSTYYADSVKGRFTISRVNAKNTVYLQMNSVKPEDTAVYYCGADIYTYNLFYHGRWLDYNYWGQGTQVTVSS | high polyreactivity |
| QVQLVESGGGLVQAGGSLRIICAASGRIFRENAMGWYRQAPGKAREWVAAISSGGSTYYADSVKGRFTISRDNAKNTDYLQMNSLKPEDPAVYYCAADLSWSRVVFGDYDYWGQGTHVTVSS | low polyreactivity |
| QVQLVESGGGLVQAGGSLRIICAASGRIFYSNGMGWYRQAPGKERELVAGITRGGSTNYADSVKGRFTISRDNAKNTVYLQMISLKPEDTAVFYCAANQLHYRPSRFVYYGYRLYDYWGHGTQVTVSS | low polyreactivity |
| QVQLVESGGGLVQAGGSLRIICAASGTTFVYNDMGWYRQAPGKEGELVAGITTSGGSTYYADSVKGRFTISRDNAKNTVYLQRNSLKPEDTAVYYWAAPAFSAWLEMDYWGQGTQVTVSS | low polyreactivity |
| QVQLVESGGGLVQAGGSLRISCAASGFIFFYAMGWYRQAPGKERELVASIDSGVSTDYADSVKGRLTISRDNAKNTVYLQMNSLKPEDNAVYYCAADPWSSLNYDYWGQGTQVTVSS | low polyreactivity |
| QVQLVESGGGLVQAGGSLRISCAASGFIFGPNAMGWYRQAPGKERELVAAISYSGGRTYYADSVKGRFTISRDNAKNTVYLQMNILKPEDTAVYYCAQPGRYWGQGTQVTVSS | high polyreactivity |

| Sequence | polyreactivity (PSR sort gate) |
| --- | --- |
| QVQLVESGGGLVQAGGSLRISCAASGFIFIAYAMGWYRQAPGKERELVAAISKSGGNTYYADSVKGRFTISRDNAKNTVYLQMNSLKPEDTAVYYCATRPCYWRYEYWGQGTQVTVSA | high polyreactivity |
| QVQLVESGGGLVQAGGSLRISCAASGFIFRPNAMGWYRQAPGKERELVAAITRDGDRTYYADSVKGRFTISRDNAKNTVYLQMNSLKPEDTAVYYCAADVIQWWTRYYTWEYDYWGQGTQVTVSS | low polyreactivity |
| QVQLVESGGGLVQAGGSLRISCAASGFIFRYYAMGWYRQAPGKERELVARITNGGSTKYSDSVKGRFTISRDNAKTTVYLQMNSLKPEDTAVYYCNTDGLVRNGPFFSWGQGTQVTVSS | low polyreactivity |
| QVQLVESGGGLVQAGGSLRISCAASGFIFTSKAMGWHRQAPGKERELVAAITKSGGSTYYADSVKGRFTISRDNAKNTVYLQMNSLKPEDTAVYYCAAYPTSRYKYEYWGQGTQVTVSS | high polyreactivity |
| QVQLVESGGGLVQAGGSLRISCAASGFIFYSYPMGWYRQAPGKERELVAAISTSGGSTYYADSVKGRFTISRDNAKNTVYLQMNSLKPEDTAVYYCAVGRKFGRYRVPFVVPYEYWGHGTQVTVSS | high polyreactivity |
| QVQLVESGGGLVQAGGSLRISCAASGFILGYKDMGWYRQAPGKERELVAAISSSGGSTYYADSVKGRFTISRDNSKNTVYLQMNILKPEDTAVYYCGLPYQTSYGEYDYWGQGTQVTVSS | low polyreactivity |
| QVQLVESGGGLVQAGGSLRISCAASGFTFHTYAMGWYRQAPGKERELVAAIDSSGGITYYADSVKGRFTISRDNAKNTVYLQMTSLKPEDTAVYYCAAVFLLFGFEWSYDYWGQGTQVTVSS | low polyreactivity |
| QVQLVESGGGLVQAGGSLRISCAASGFTFNANAMAWYRQAPGKERELVAAISLSGGRTYYADSVKRRFTISRDNAKNTVYLQMNSMKQVDTAVYYCAASPDGSFRRFSRVVSGDYWGQGTQVTVSS | high polyreactivity |
| QVQLVESGGGLVQAGGSLRISCAASGFTFPSNAMGWYRQAPGKERELVAAITGGGRTYYADSVKGRFTISRDNAKNTVFFQMNSLKPEDTAVYYCNRPTRVHLTHYDYCGQGTQVTVSS | high polyreactivity |
| QVQLVESGGGLVQAGGSLRISCAASGFTFRSYAMGWYRQAPGKERELVAAISWRGGRTYYADSVKGRFTISRDNAKNTVYLQMNSLKPLDTAVYYCATDWYWGSYAPYTTRAHFDYWGQGTQVTVSS | high polyreactivity |
| QVQLVESGGGLVQAGGSLRISCAASGFTIAYYAMGWYRQAPGKERQKVASISSGDSTHYADSVKGRFTISRDNAKNTVYLQMNSLKPEDTAVYYCNADTRTFYYAAKTGFTFLYGYWGQGTQVTVSS | high polyreactivity |
| QVQLVESGGGLVQAGGSLRISCAASGGIFIRNAMGWYRQAPGKERELFATISNAGSTYADSVKGRFTISRDNAKNTVYLQMNSLKPEDTAVYYCNRVDWTYPVSQGLQEYDYRGQGTQVTVSS | low polyreactivity |
| QVQLVESGGGLVQAGGSLRISCAASGHIFFYYTMGWYRPAPGKERELVAGITIGGSTNYADSVKGRFTISRDNAKNTVSLQMNSLKPEDTAVYYCNVVKYVYIYSYWEYYYWGQGTQVTVSS | low polyreactivity |
| QVQLVESGGGLVQAGGSLRISCAASGIIFALYAMGWYRQAPGKERELVAAISWSGDRTYYADSVKGRFTISRDNAKNTVYLQMNSLKPEDTAVYYCAADDYTADAVQRFYYWGQGTQVTVSS | low polyreactivity |
| QVQLVESGGGLVQAGGSLRISCAASGIIFDRYVMGWYRQAPGKERELVATITRSVNTDYADSVKGRFTISRDNAKNTVYLQMNSLKPEDTAVYYCAARKYYYFPVAYDYWGQGTQVTVSS | high polyreactivity |
| QVQLVESGGGLVQAGGSLRISCAASGIIFGEYAMGWYRQAPGKERELVAAISQSGGTYYADSVKGRFTISRDNAKNTVYLQMNSLKPEDTAVYYCNADYWAYISRVRYDYWGQGTQVTVSS | low polyreactivity |
| QVQLVESGGGLVQAGGSLRISCAASGITFEGYAMGWYRQAPGKESEFVAAITSTGTSTRYADSVKGRFTISRDNAKNTVYLQMNSLKPEDTAVYYCAAVARRLNTGKYYYWGQGTQVTVSS | high polyreactivity |
| QVQLVESGGGLVQAGGSLRISCAASGITFGRYTMGWYRQAPGKERELVAAITNGDITYYADSVKGRFTISRDNAKNTVYLQMNSLKPDDTAVYYCAADRYFWYDYWGQATQVTVSS | high polyreactivity |
| QVQLVESGGGLVQAGGSLRISCAASGITFNKNDMGWYRQAPGKERELVAAISGRGGSTYYADSVKGRVTISRDNAKNTVYLQMNSLKPEDTAVYYCAADNFKGDSYGTGNYDYWGQGTQVTVSS | high polyreactivity |
| QVQLVESGGGLVQAGGSLRISCAASGITFRYYTMGWYRQAPGKERELVAAINYRGGRTYYADSVKGRFTISRDNAKNTVYLQMNSLKPEDTAVYYCNTARVSRLGWSTTSDSWGQGTQVTVSS | high polyreactivity |
